The record followed here is article PMC10350561 (MicrobiologyOpen, 2023).

The target in the test is staphylococcal superantigen-like protein 1 (Staphylococcus aureus, strain of the …, UniProt A0A0H3KAV3). As to the kind of experiment: ELISA. Conditions: one partner purified. A general note: In an ELISA, binding on a coated surface is turned into a signal by an enzyme label.
Sequence of staphylococcal superantigen-like protein 1 (A0A0H3KAV3 31-226): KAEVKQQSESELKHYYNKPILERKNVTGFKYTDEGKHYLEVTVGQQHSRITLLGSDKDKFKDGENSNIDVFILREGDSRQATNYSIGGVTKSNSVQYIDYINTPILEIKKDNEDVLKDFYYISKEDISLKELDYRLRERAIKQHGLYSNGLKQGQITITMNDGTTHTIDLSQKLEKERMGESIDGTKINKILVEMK

B1: scFv-99 (scFv-ALP fusion) (scFv, V domains shown)
VH: EVQLLESGGGLVQPGGSLRLSCAASGFTFSNYSMHWVRQAPGKGLEWVSVIDYNSGYTDYADSVKGRFTISRDNSKNTLYLQMNSLRAEDTAVYYCARGIFDYWGQGTLVTVSS
VL: EIVLTQSPGTLSLSPGERATLSCRASQSVSSSALAWYQQKPGQAPRLLIYGASSRATGVPDRFSGSGSGTDFTLTISRLEPEDFAVYYCQQSSSTPWTFGQGTKVEIK
As for B1, the binding result is reported as “binds”.
